The values below come from article doi:10.1101/2020.06.23.166439.

In general, stoichiometry N refers to a count of units in the complex or per binding partner.

The target of this assay is tail tube protein (TTP) gp17.1 of bacteriophage SPP1 (bacteriophage SPP1). Kind of assay: cryo-EM structure + other: solid-state NMR.

Turning to “tail tube protein (TTP) gp17.1 of bacteriophage SPP1 (natural protein)”, the stoichiometry N stood at 6.
